Source: publication doi:10.1101/2023.01.20.524748

Target: B.1.1.529 (BA.1) S1 + S2 Trimer-His Recombinant Protein (SARS-CoV-2) (UniProt P0DTC2)
Assay: cryo-EM structure

B.1.1.529 (BA.1) S1 + S2 Trimer-His Recombinant Protein (from UniProt P0DTC2 324-533) (natural protein)
stoichiometry N: 3
